Experimental data: paper PMC3460959
Where two headings read alike, the source gives them in different places.

Legend:
[1] = biological target: Substance P (FAM-SP) (Homo sapiens), P20366
[2] = biological target: Substance P (FAM-SP) (Homo sapiens), P20366; remark: listed apart in the source

Chain of Substance P (FAM-SP) (Homo sapiens), P20366 (P20366 whole entry, looked up): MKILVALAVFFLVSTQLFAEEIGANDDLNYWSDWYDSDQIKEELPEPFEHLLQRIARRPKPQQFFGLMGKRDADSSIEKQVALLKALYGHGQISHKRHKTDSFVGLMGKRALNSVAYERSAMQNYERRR

B1: Neurokinin 1 receptor (NK1R), P25103 (protein)
chain: MDNVLPVDSDLSPNISTNTSEPNQFVQPAWQIVLWAAAYTVIVVTSVVGNVVVMWIILAHKRMRTVTNYFLVNLAFAEASMAAFNTVVNFTYAVHNEWYYGLFYCKFHNFFPIAAVFASIYSMTAVAFDRYMAIIHPLQPRLSATATKVVICVIWVLALLLAFPQGYYSTTETMPSRVVCMIEWPEHPNKIYEKVYHICVTVLIYFLPLLVIGYAYTVVGITLWASEIPGDSSDRYHEQVSAKRKVVKMMIVVVCTFAICWLPFHIFFLLPYINPDLYLKKFIQQVYLAIMWLAMSSTMYNPIIYCCLNDRFRLGFKHAFRCCPFISAGDYEGLEMKSTRYLQTQGSVYKVSRLETTISTVVGAHEEEPEDGPKATPSSLDLTSNCSSRSDSKTMTESFSFSSNVLS
Question: Which results are given for B1?
Answer: Kd [1]: 83 nM; Kd [2]: 34 nM
